What all share (assay): cell-based or functional assay
Test [1] concerns the target GLP-1 receptor.
Test [2] deals with T1, human GLP-2 receptor (human, UniProt O95838 1-553).
T1 sequence (looked up): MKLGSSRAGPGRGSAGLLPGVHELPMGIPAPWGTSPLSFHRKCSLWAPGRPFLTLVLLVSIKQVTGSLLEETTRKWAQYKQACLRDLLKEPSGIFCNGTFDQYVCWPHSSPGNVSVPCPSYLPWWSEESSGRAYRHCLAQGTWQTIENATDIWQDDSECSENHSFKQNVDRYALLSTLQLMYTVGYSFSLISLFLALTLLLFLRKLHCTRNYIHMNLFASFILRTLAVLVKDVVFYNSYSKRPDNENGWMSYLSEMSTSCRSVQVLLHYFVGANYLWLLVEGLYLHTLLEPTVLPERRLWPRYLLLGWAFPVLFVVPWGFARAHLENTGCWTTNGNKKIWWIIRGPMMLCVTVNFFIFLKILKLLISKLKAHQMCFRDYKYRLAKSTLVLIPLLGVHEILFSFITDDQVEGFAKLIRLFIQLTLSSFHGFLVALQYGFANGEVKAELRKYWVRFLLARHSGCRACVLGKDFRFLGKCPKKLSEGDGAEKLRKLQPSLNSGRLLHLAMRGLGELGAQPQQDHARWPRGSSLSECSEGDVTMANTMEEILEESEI

Test [3] deals with GLP-1 receptor. This is another data set of the same source.
The target in test [4] is GLP-1 receptor. This is another data set of the same source.
Test [5] addresses T1, human GLP-2 receptor. The source holds these as a separate data set.

Numbering of substitutions follows the chain as printed.

B1: MG12-4 (bispecific fusion protein of Example 4) (Fc fusion)
chain 1: HGEGTFTSDVSSYLEGQAAKEFIAWLVKGGPSSGAPPPSGGGGGSGGGGSGGGGSAKNTTAPATTRNTTRGGEEKKKEKEKEEQEERTHTCPPCPSHTQPLGVFLFPPKPKDQLMISRTPEVTCVVVDVSQEDPEVQFNWYVDGVEVHNAKTKPREEQFNSTYRVVSVLTVLHQDWLNGKEYKCKVSNKGLPSSIEKTISKAKGQPREPQVYTLPPCQEEMTKNQVSLWCLVKGFYPSDIAVEWESNGQPENNYKTTPPVLDSDGSFFLYSRLTVDKSRWQEGNVFSCSVLHEALHNHYTQKSLSLSLGK
chain 2: HGDGSFSDEMNTILDNLAARDFINWLIQTKITDGGGGSGGGGSGGGGSEKEKEEQEERTHTCPPCPSHTQPLGVFLFPPKPKDQLMISRTPEVTCVVVDVSQEDPEVQFNWYVDGVEVHNAKTKPREEQFNSTYRVVSVLTVLHQDWLNGKEYKCKVSNKGLPSSIEKTISKAKGQPREPQVCTLPPSQEEMTKNQVSLSCAVKGFYPSDIAVEWESNGQPENNYKTTPPVLDSDGSFFLVSRLTVDKSRWQEGNVFSCSVLHEALHNHYTQKSLSLSLGK
modifications: glycan linker (SEQ ID NO: 43) with N-glycosylation sites
In the case of B1, in the test with GLP-1 receptor [1], the “EC50 (pM), cAMP luciferase reporter in GLP1R_cAMP/luc cells” value (shortened to “EC50 (pM) … in GLP1R_cAMP/luc cells”) stood at 66 pM and the “vs. GLP-1 relative activity (%)” value is 39%. For the same molecule, in the test with human GLP-2 receptor [2], the “EC50 (nM), cAMP-gated CNG channel membrane potential dye fluorescence (Ft/F0) in Human GLP2R ACTOne cells” value (“EC50 (nM)” for short) came out at 1.22 nM and the “vs. GLP-2 relative activity (%)” value is 48%.

B2: MG12-5 (bispecific fusion protein of Example 5) (Fc fusion)
chain 1: HGEGTFTSDVSSYLEGQAAKEFIAWLVKGGPSSGAPPPSGGGGSGGGGSGGGGSEKEKEEQEERTHTCPPCPSHTQPLGVFLFPPKPKDQLMISRTPEVTCVVVDVSQEDPEVQFNWYVDGVEVHNAKTKPREEQFNSTYRVVSVLTVLHQDWLNGKEYKCKVSNKGLPSSIEKTISKAKGQPREPQVYTLPPCQEEMTKNQVSLWCLVKGFYPSDIAVEWESNGQPENNYKTTPPVLDSDGSFFLYSRLTVDKSRWQEGNVFSCSVLHEALHNHYTQKSLSLSLGK
chain 2: B1 chain 2
As to B2, in the test with GLP-1 receptor [1], the “EC50 (pM) … in GLP1R_cAMP/luc cells” value worked out at 75 pM and the “vs. GLP-1 relative activity (%)” value came out at 35%. Moreover, in the test with human GLP-2 receptor [2], the “EC50 (nM)” value is 0.99 nM and the “vs. GLP-2 relative activity (%)” value worked out at 59%.

B3: MG12-1 (bispecific fusion protein of Example 1) (Fc fusion)
chain 1: HGEGTFTSDVSSYLEGQAAKEFIAWLVKGRGGGGGSGGGGSGGGGSAKNTTAPATTRNTTRGGEEKKKEKEKEEQEERTHTCPPCPSHTQPLGVFLFPPKPKDTLMISRTPEVTCVVVDVSQEDPEVQFNWYVDGVEVHNAKTKPREEQFNSTYRVVSVLTVLHQDWLNGKEYKCKVSNKGLPSSIEKTISKAKGQPREPQVYTLPPCQEEMTKNQVSLWCLVKGFYPSDIAVEWESNGQPENNYKTTPPVLDSDGSFFLYSRLTVDKSRWQEGNVFSCSVMHEALHNHYTQKSLSLSLGK
chain 2: B1 chain 2 with Q84T, L262M
modifications: glycan linker (SEQ ID NO: 43) with N-glycosylation sites
Turning to B3, the “fold reduction of GLP-1 activity (cAMP luciferase reporter)” value in the test with GLP-1 receptor [3] is around 11 times. In addition, in the test with GLP-1 receptor [1], the “EC50 (pM) … in GLP1R_cAMP/luc cells” value amounted to 304 pM and the “vs. GLP-1 relative activity (%)” value came to 9%. Further, in the test with human GLP-2 receptor [2], the “EC50 (nM)” value amounted to 1.35 nM and the “vs. GLP-2 relative activity (%)” value came to 43%.

B4: MG12-2 (bispecific fusion protein of Example 2) (Fc fusion)
chain 1: HGDGSFSDEMNTILDNLAARDFINWLIQTKITDGGGGSGGGGSGGGGSAKNTTAPATTRNTTRGGEEKKKEKEKEEQEERTHTCPPCPSHTQPLGVFLFPPKPKDTLMISRTPEVTCVVVDVSQEDPEVQFNWYVDGVEVHNAKTKPREEQFNSTYRVVSVLTVLHQDWLNGKEYKCKVSNKGLPSSIEKTISKAKGQPREPQVYTLPPCQEEMTKNQVSLWCLVKGFYPSDIAVEWESNGQPENNYKTTPPVLDSDGSFFLYSRLTVDKSRWQEGNVFSCSVMHEALHNHYTQKSLSLSLGK
chain 2: HGEGTFTSDVSSYLEGQAAKEFIAWLVKGRGGGGGSGGGGSGGGGSEKEKEEQEERTHTCPPCPSHTQPLGVFLFPPKPKDTLMISRTPEVTCVVVDVSQEDPEVQFNWYVDGVEVHNAKTKPREEQFNSTYRVVSVLTVLHQDWLNGKEYKCKVSNKGLPSSIEKTISKAKGQPREPQVCTLPPSQEEMTKNQVSLSCAVKGFYPSDIAVEWESNGQPENNYKTTPPVLDSDGSFFLVSRLTVDKSRWQEGNVFSCSVMHEALHNHYTQKSLSLSLGK
modifications: glycan linker (SEQ ID NO: 43) with N-glycosylation sites
Take B4: the “EC50, GLP-1 activity (luciferase reporter assay)” value with GLP-1 receptor [4] came out at 0.402 nM. In addition, in the test with human GLP-2 receptor [5], the “EC50, GLP-2 activity (fluorescence spectroscopy)” value turned out to be 44 nM.

The values above are taken from patent US20240368239A1 (SL METAGEN, published 2024).
